Results taken from a protein production outcome set (Wang et al. 2014).

Test: label from the status in PepcDB records

Row | Sequence | protein production
1 | MKVIGINGSSRKDGNTAILIQTVFEELTKEGIETELIQLSGKNIEGCKACWACHKNRNKQCVITDDFFNECFAKMLVSDGIILGSPVYSAGVTSQMKALIDRASMVLAGNRGLFKHKVGASVVAARRGGAISAFGTLNNFLHSKEMFLVGSSYWNMAYGNAIGEVEQDQEGIDNMKNLGQNMAWILKKIHNS | failed
2 | MVTNKLITLLPDLATFIVVVNEGSFTAAAKKLGVTPSALSKLITRLENALSVKLFERTTRSLLITESGKKIYQQSVIMVEAAQQAVDISSSEHTVPSGSLTVAAPKAFLTIVLQPLITPFLTKYPKIQLKLRASDGDIDMIAQGIDVVFRLTDKPTEGLVMKEIGKVNLSLCASPTYLEERGIPHLPQELANHDCLFLGETTTDHIWEFVKGTESHVIAVSGRYAVNHSQMRLNGVKDGFGIGIFPDFVIKEALANNEVISVLSDWQIKGNYHGVIAMQYAQNKYIPSRLKVFTEFVKENLMKSKVNDERT | not failed
3 | MSLAEKIKVLIVDDQVTSRLLLGDALQQLGFKQITAAGDGEQGMKIMAQNPHHLVISDFNMPKMDGLGLLQAVRANPATKKAAFIILTAQGDRALVQKAAALGANNVLAKPFTIEKMKAAIEAVFGALK | not failed
4 | MGTEERKARQKRYPPVLQDSGERPRRRFPYVSRSFVPSVFTVMNMVSGYVSIVMAGEGSFVIAGWLIFLAAFFDTIDGFVARLTNSSSEFGVELDSLSDLVSFGAAPAYLVYKFGLEHIGMPWGLLLSSLLMVGSGLRLARFNINLIDYHKDSFSGLPTPAQAMTVASFVLWMSVEPLFTELALQKVLMVLSVLLATLMVSKVNYDALPKPTLESFRSHPVQMILYVIAIFCVLVFQAKAFFVAMLLYILLGIVRSLTRTVQEWQL | failed
5 | MGLDVDWALDWLKLSAKAMAEHRVELIELDRPIGDSDHGENMDRGFQAVLQKLDETPPETPGAALKAAAMALMSKVGGAAGPLYGTAYLRAATSLGDAGDIDAEALAAALAAARDGVVARGKAELGDKTMIDAWTPAVEAAQKAAASGADPVAVLEAAAEAAETGAMATDPLVARKGRASYLGERSAGHRDPGAASTALLLRAAAAAAAGSTADKGADAV | failed
6 | MTNFKDNDGDGTKLHVVMFPWLAFGHMVPYLELSKLIAQKGHKVSFISTPRNIDRLLPWLPENLSSVINFVKLSLPVGDNKLPEDGEATTDVPFELIPYLKIAYDGLKVPVTEFLESSKPDWVLQDFAGFWLPPISRRLGIKTGFFSAFNGATLGILKPPGFEEYRTSPADFMKPPKWVPFETSVAFKLFECRFIFKGFMAETTEGNVPDIHRVGGVIDGCDVIFVRSCYEYEAEWLGLTQELHRKPVIPVGVLPPKPDEKFEDTDTWLSVKKWLDSRKSKSIVYVAFGSEAKPSQTELNEIALGLELSGLPFFWVLKTRRGPWDTEPVELPEGFEERTADRGMVWRGWVEQLRTLSHDSIGLVLTHPGWGTIIEAIRFAKPMAMLVFVYDQGLNARVIEEKKIGYMIPRDETEGFFTKESVANSLRLVMVEEEGKVYRENVKEMKGVFGDMDRQDRYVDSFLEYLVTNR | failed
7 | ADKFTFIGFLSKKDSEQKKQLEELMPLDSTLIFYESPFRVGKTLENVRAIFGEKTKVVLARELTKKFESYYRGDITQALNFIKSNRPRGEFVLLIKKIHEA | failed
8 | MSTGATIVIDLGKTLSKVSLWDLDGRMLDRQVRPSIPLEIDGIRRLDAPDTGRWLLDVLSRYADHPVTTIVPVGHGAGIAALTDGRLAFPPLDYEQSIPEAVMADYRSQRDPFARTGSPALPDGLNIGSQLWWLDQLHPDVMANATLLPWAQYWAWFLTGRAVSEVTSLGCHSDLWDPQDGDFSPMAKRLGWAARFAPIVRAGDTVGALLPAIAERTGLSPDVQVLAGLHDSNAALLAARGFAEIADNEATVLSTGTWFIAMRLPATPVDTATLPEARDCLVNVDVHGRPVPSARFMGGREIETLIEIDTRRVDIKPDQPALLAAVPEVLRHGRMILPTLMRGFGPYPHGRFAWINRPEDWFERRAAACLYAALVADTALDLIGSTGRILVEGRFAEADVFVRALASLRPDCAVYTANAHNDVSFGALRLIDPGLRPQGELVRIEPLDTGSWADLDTYRNRWQAEVEAAKVEPITLEHHHHHH | not failed
9 | MKPDDLPSDVSSDPLLRLRRQISDEASQCVACGLCVPHCPSYRVTLSEADSPRGRIALMSGVAAGRIPMNARFALHMDRCLTCRACEAVCPNHVRFGELIDDAREMISSPPLEFGGNNPGARVSSFRKWVERELIARPSRIDALRPLLRFYQRSGLQKWVRKSGLLGKTKLALLEAQIPFIDQPRSSSWSVVYPAVGKPRGEVGLFLGCVARVADATTLDAALFVLNQLGYVVHVPTGQTCCGALHQHRGDMDAAAQLERQNVEAFAGLDLGAIITTASGCGAQLSEYSSFSGSQRTTRAPAVSSQAGGETTRRSPPKVLDISEFLAEAEGWEDARFQPLPHKILVHEPCTLRNVLRASTYAYKLLERIPQAQVVPLAGNDQCCGAAGTYFLDQPEISAALLEDKVTALKAGQACYLATSNVGCALHIAAGLRRPGLGIEVIHPVTLIARQMGMQSQSLK | failed
10 | MFQDPTDEYIRTITAHCDLAGKEVLEVGCGTGRITRDLARHARRVVAVDPDETALAKARSAVPAPNVQFLPMPDGVLHFPPASFDVVIHTLSLHHVPLDRMNESLRAAAGLVRDGGVIVVVEPGDGGSFTEAKERFGAGSGDERPGREAAIRAMHGLDGWTVGETVLFRVRFLFADEDDFIATKLPGFGEKPEAFQQEVREFLARHRTAEGVVLDAGRRLNVLRRG | failed
11 | MEKDKKTTAKIYPFYPNGQFYFERGVEAFREQRIKEAIRYLVRASELEPGEPVILCQLAICYTEIGQFHKSNQLLREIMEKRLGNMEYCYYFIANNFAYMKDYRRALQYASRYLEIAADGDYAEEAKDLIEVLLEETPFGETIENGFSKLEQEFYSYKKEINRYLAEEDSASACDILKKVIDEKPNFWPAYNQLAALYFEQLKEEEGVKVLSDLIARNPGNLLGLCDLFIYHFYKGNREEADSLYSELRDVLPVLSHHKEKIGLIHAMMGDYEEADDLLEQVADLEVTERSKYYYYRAKSAYYLDEVEEAKMFWHSFLECDLYEDTRFPWEQEADLTNDTRLVLEMLQAESDMTHLLGVYAMTVSGNRPEFVLFHPLLDMSSWSYMEHLMFTDFDYFPDGNVEQNCYLIMKAMTILRENGLLLNEENLPLYETIFSLVLMENRKELILGRYTIETVASAIAKIFLPEMKLASVDEFECSKCARDIEQFLSR | failed
12 | MNISEMDSFDVTGFVIRTTNADEVSPSTAKIGELWARFYANAAPKLNEKSKVFGLYTNYGSDFTGAFDVIACSDTLSPEILPDSVKVTVAPGKYVTFSATGEMPQVVIELWGDVWRYFGSESCPYKRAYTTDFEYYKSASEVEISIAIK | failed
13 | MKKGRFKRNWPIILFGIIVFIFSFYFKISPKSLKNFTDIMSASLSFSAIVTAIFFASFSLIPTSGSNKLVVMMEDLGTEIKIMDRLLVATFLSFISSLLSFISLFFSKTDTDLISILVVSSWLSSTVMMFLSSFFVLRTLILLVETYNNFKNK | failed
14 | MEVPKEQIATLIEHGLYDSAEMLGCFLVSSPTVSAETSPQLKAENLILLGDALFHQREHRRAIHTYKQALHHYTRIPKQSSGISRSSLSLSTRSSVNASSISAINENEVRFKIASSHFALNETKAAIAEMESVKTRSLEMNILMAKLHRNSGYNRGAIAFYKECLRQCPYVLEAVIGLAELGVSAKDIISSFTQTSNRSAKVSLDQIDPTRWLQRYVEAQCCVASHAYKGALELFAELLQRFPNNVHLLTETAKVEAIIGKNDEAIMRFEKVRSIDPYTLTSMDEYAMLLQIKCDYSRLNKLVHDLLSVDHTRAEVFVALSVLWERKDARTALSYAEKSIRVDERHIPGYIMKGNLLLQAKRPEAAAIAFRAAQNLRSDLRSYQGLVHSYLAFGKTKEALYTAREAMNAMPQSAKALKLVGDVHAFTSSGREKAKKFYESGLRLEPGYLGAVLALAELHLMEGRNGDAVSLLERYLKDYADDSLHVKLAQVFAATNMLQDSLSHFQAALRINPQNEAAKKGLDRLEKQMKGIDPDATDENDENDVEDVDGDTEEAELM | failed
15 | MQCPIEDRLAIQDLMIAYAHAVDTVSDIDAVLDVFTEDAVFDLSGIGLTPQVGHAGIREFFTNVFANMSHHAHYLTNFAVTGYEGDTASMRAYVIGMGVGKDGRAVTVNGRYFFEVRRTEKGWKATRYTMDFLMPLSGTLDNAK | not failed
